B1: Azoarcus group I ribozyme (parent)
chain: GUGCCUUGCGCCGGGAAACCACGCAAGGGAUGGUGUCAAAUUCGGCGAAACCUAAGCGCCCGCCCGGGCGUAUGGCAACGCCGAGCCAAGCUUCGGCGCCUGCGCCGAUGAAGGUGUAGAGACUAGACGGCACCCACCUAAGGCAAACGCUAUGGUGAAGGCAUAGUCCAGGGAGUGGCGAAAGUCACACAAACCGG

Variants of: B1
Experiment: reverse-splicing fitness (ratio to wild type); higher = more active; in vitro selection; Mg2+ level not given
Procedure, shortened: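 An in vitro group I ribozyme library with randomized positions was T7-transcribed and gel-purified. In triplicate, 10 pmol RNA in EPPS pH 7.5 was reacted with 50 pmoles of a 30-nt RNA substrate for 1 h at 37 °C across several added MgCl2 levels (1–48 mM), then stopped with EDTA. Products were reverse transcribed from a substrate-complementary primer, PCR-amplified and sequenced (HiSeq 4000). Fitness is a variant's read proportion after selection over that before, normalised to wild type.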

Variant | reverse-splicing fitness
GUGCCUUGCGCCGGGAAACCACGCAAGGGAUGGUGUCAAAUUCGGCGAAACCUAAGCGCCCGCCCGGGCGUAUGGCAACGCAGAGCCAAGCUUCGGCGCCUGCGCCGAUGUAGGUGUAGAGACUAGACGGCACCCACCUAAGGCAAACGCUAUGGUGAAGGCAUAGUCCAGGGAGAGGCGAAAGUCACACAAACCGG [C82A A111U U176A] | 0.0911
GUGCCUUGCGCCGGGAAACCACGCAAGGGAUGGUGUCAAAUUCGGCGAAACCUAAGCGCCCGCCCGGGCGUAUGGCAACGCAGAGCCAAGCUUCGGCGCCUGCGCCGAUGUAGGUGUAGAGACUAGACGGCACCCACCUAAGGCAAACGCUAUGGUGAAGGCAUAGUCAAGGGAGUGGCGAAAGUCACACAAACCGG [C82A A111U C169A] | 0.00917
GUGCCUUGCGCCGGGAAACCACGCAAGGGAUGGUGUCAAAUUCGGCGAAACCUAAGCGCCCGCCCGGGCGUAUGGCAACGCAGAGCCAAGCUUCGGCGCCUGCGCCGAUGUAGGUGUAGAGACUAGACGGCACCCACCUAAGGCAAACGCUAUGGUGAAGGCAUAGUCUAGGGAGUGGCGAAAGUCACACAAACCGG [C82A A111U C169U] | 0.014
GUGCCUUGCGCCGGGAAACCACGCAAGGGAUGGUGUCAAAUUCGGCGAAACCUAAGCGCCCGCCCGGGCGUAUGGCAACGCAGAGCCAAGCUUCGGCGCCUGCGCCGAUGUAGGUGUAGAGACUAGACGGCACCCACCUAAGGCAAACGCUAUGGUGAAGGCAUAGUCGAGGGAGUGGCGAAAGUCACACAAACCGG [C82A A111U C169G] | 0.00884
GUGCCUUGCGCCGGGAAACCACGCAAGGGAUGGUGUCAAAUUCGGCGAAACCUAAGCGCCCGCCCGGGCGUAUGGCAACGCAGAGCCAAGCUUCGGCGCCUGCGCCGAUGUAGGUGUAGAGACUAGACGGCACCCACCUAAGGCAAACGCUAUGGUGAAGGCAUAGUCAAGGGAGCGGCGAAAGUCACACAAACCGG [C82A A111U C169A U176C] | 0.0202
GUGCCUUGCGCCGGGAAACCACGCAAGGGAUGGUGUCAAAUUCGGCGAAACCUAAGCGCCCGCCCGGGCGUAUGGCAACGCAGAGCCAAGCUUCGGCGCCUGCGCCGAUGUAGGUGUAGAGACUAGACGGCACCCACCUAAGGCAAACGCUAUGGUGAAGGCAUAGUCAAGGGAGGGGCGAAAGUCACACAAACCGG [C82A A111U C169A U176G] | 0.00595
GUGCCUUGCGCCGGGAAACCACGCAAGGGAUGGUGUCAAAUUCGGCGAAACCUAAGCGCCCGCCCGGGCGUAUGGCAACGCAGAGCCAAGCUUCGGCGCCUGCGCCGAUGUAGGUGUAGAGACUAGACGGCACCCACCUAAGGCAAACGCUAUGGUGAAGGCAUAGUCAAGGGAGAGGCGAAAGUCACACAAACCGG [C82A A111U C169A U176A] | 0.0172
GUGCCUUGCGCCGGGAAACCACGCAAGGGAUGGUGUCAAAUUCGGCGAAACCUAAGCGCCCGCCCGGGCGUAUGGCAACGCAGAGCCAAGCUUCGGCGCCUGCGCCGAUGUAGGUGUAGAGACUAGACGGCACCCACCUAAGGCAAACGCUAUGGUGAAGGCAUAGUCGAGGGAGCGGCGAAAGUCACACAAACCGG [C82A A111U C169G U176C] | 0.0258
GUGCCUUGCGCCGGGAAACCACGCAAGGGAUGGUGUCAAAUUCGGCGAAACCUAAGCGCCCGCCCGGGCGUAUGGCAACGCAGAGCCAAGCUUCGGCGCCUGCGCCGAUGUAGGUGUAGAGACUAGACGGCACCCACCUAAGGCAAACGCUAUGGUGAAGGCAUAGUCGAGGGAGGGGCGAAAGUCACACAAACCGG [C82A A111U C169G U176G] | 0.00658
GUGCCUUGCGCCGGGAAACCACGCAAGGGAUGGUGUCAAAUUCGGCGAAACCUAAGCGCCCGCCCGGGCGUAUGGCAACGCAGAGCCAAGCUUCGGCGCCUGCGCCGAUGUAGGUGUAGAGACUAGACGGCACCCACCUAAGGCAAACGCUAUGGUGAAGGCAUAGUCGAGGGAGAGGCGAAAGUCACACAAACCGG [C82A A111U C169G U176A] | 0.0162
GUGCCUUGCGCCGGGAAACCACGCAAGGGAUGGUGUCAAAUUCGGCGAAACCUAAGCGCCCGCCCGGGCGUAUGGCAACGCAGAGCCAAGCUUCGGCGCCUGCGCCGAUGUAGGUGUAGAGACUAGACGGCACCCACCUAAGGCAAACGUUAUGGUGAAGGCAUAGUCUAGGGAGUGGCGAAAGUCACACAAACCGG [C82A A111U C150U C169U] | 0.0124
GUGCCUUGCGCCGGGAAACCACGCAAGGGAUGGUGUCAAAUUCGGCGAAACCUAAGCGCCCGCCCGGGCGUAUGGCAACGCAGAGCCAAGCUUCGGCGCCUGCGCCGAUGAAGGUGUAGCGACUAGACGGCACCCACCUAAGGCCAACGAUAUGGUGAAGGCAUAGUCAAGGGAGUGGCGAAAGUCACACAAACCGG [C82A A120C A145C C150A C169A] | 0.00995
GUGCCUUGCGCCGGGAAACCACGCAAGGGAUGGUGUCAAAUUCGGCGAAACCUAAGCGCCCGCCCGGGCGUAUGGCAACGCAGAGCCAAGCUUCGGCGCCUGCGCCGAUGAAGGUGUAGCGACUAGACGGCACCCACCUAAGGCCAACGAUAUGGUGAAGGCAUAGUCGAGGGAGUGGCGAAAGUCACACAAACCGG [C82A A120C A145C C150A C169G] | 0.0078
GUGCCUUGCGCCGGGAAACCACGCAAGGGAUGGUGUCAAAUUCGGCGAAACCUAAGCGCCCGCCCGGGCGUAUGGCAACGCAGAGCCAAGCUUCGGCGCCUGCGCCGAUGAAGGUGUAGCGACUAGACGGCACCCACCUAAGGCAAACGCUAUGGUGAAGGCAUAGUCCAGGGAGUGGCGAAAGUCACACAAACCGG [C82A A120C] | 0.144
GUGCCUUGCGCCGGGAAACCACGCAAGGGAUGGUGUCAAAUUCGGCGAAACCUAAGCGCCCGCCCGGGCGUAUGGCAACGCAGAGCCAAGCUUCGGCGCCUGCGCCGAUGAAGGUGUAGCGACUAGACGGCACCCACCUAAGGCCAACGAUAUGGUGAAGGCAUAGUCCAGGGAGUGGCGAAAGUCACACAAACCGG [C82A A120C A145C C150A] | 0.0144

Source: the RNAGym collection of RNA variant scans (doi:10.1093/molbev/msab373)
